Literature values as cited in doi:10.1101/2024.02.22.581550.

Biological target: Cys145 (UniProt position 145, PILIPCHRVVC)

In the case of “O6-alkylguanine-DNA alkyltransferase (hAGT; MGMT, methylated-DNA--protein-cysteine methyltransferase) (Homo sapiens)”, the pKa is given as “∼5”.
